We go through 2 molecules from PMC2192655 (The Journal of Cell Biology, 2000).

In test [1] the target is Sncp (Snc proteins, secretory vesicle SNARE) (yeast (endogenous in the yeast strains of Table 1)) (UniProt P31109). As to the kind of experiment: co-IP.
For the next test, the target named is T1, Tlg2p (yeast (endogenous in the yeast strains), UniProt Q08144 1-397).
T1 sequence: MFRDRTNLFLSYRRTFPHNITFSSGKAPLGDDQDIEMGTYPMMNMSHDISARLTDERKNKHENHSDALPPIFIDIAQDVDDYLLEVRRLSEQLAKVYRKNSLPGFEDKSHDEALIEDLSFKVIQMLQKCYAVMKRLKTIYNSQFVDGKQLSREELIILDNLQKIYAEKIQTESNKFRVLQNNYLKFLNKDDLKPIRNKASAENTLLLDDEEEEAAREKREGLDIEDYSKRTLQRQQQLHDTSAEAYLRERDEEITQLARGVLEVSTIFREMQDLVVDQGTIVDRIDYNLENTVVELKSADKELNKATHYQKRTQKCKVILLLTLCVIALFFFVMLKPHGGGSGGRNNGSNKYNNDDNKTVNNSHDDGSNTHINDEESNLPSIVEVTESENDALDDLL
As to the kind of experiment: co-IP.

Chain of Sncp (Snc proteins, secretory vesicle SNARE) (yeast (endogenous in the yeast strains of Table 1)) (P31109 whole entry): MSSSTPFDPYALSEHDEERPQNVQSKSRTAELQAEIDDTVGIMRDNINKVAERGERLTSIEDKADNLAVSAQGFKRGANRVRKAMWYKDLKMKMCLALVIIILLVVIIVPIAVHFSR

“Ssop (Sso proteins, plasma membrane SNARE) (from UniProt P32867 1-290) (natural protein)”: in test [1], the percent of total Ssop coprecipitating with Sncp was determined as 0.7%.

B1: HA-Snc2p (COOH-terminally triple-HA-tagged Sncp) (natural protein)
chain: MSSSVPYDPYVPPEESNSGANPNSQNKTAALRQEIDDTVGIMRDNINKVAERGERLTSIEDKADNLAISAQGFKRGANRVRKQMWWKDLKMRMCLFLVVIILLVVIIVPIVVHFS
With B1, the “fold less bound to Tlg2p than to Ssop” value in the test with Tlg2p stood at 10 fold.
